Test results taken from the supplement of paper PMC9170038.

Test system: K4 kissing-loop RNA reporter
Assay: apparent KD of K4 kissing-loop reporter; higher = weaker reporter binding
Details: Eterna round: R107
Experimental: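 RNA-MaP round R107: designed RNA switches with theophylline, tryptophan, arginine or FMN aptamers are transcribed on-chip within common flanks. They are titrated with a labelled K4 kissing-loop RNA reporter in RNA-MaP buffer (100 mM Tris pH 7.5, 80 mM KCl, 4 mM MgCl2), without ligand or with the indicated ligand. Median apparent KD per design.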

[1] = input ligand: theophylline 20 uM
[2] = input ligand: tryptophan 2.4 mM
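Further: bound reporter read as fluorescence of individual clusters on recovered sequencing chips by microscopy, with normalized cluster intensities fitted with a binding model.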

| Sequence | apparent KD of K4 kissing-loop reporter (input ligand: FMN 200 uM) [nM] | apparent KD of K4 kissing-loop reporter (input ligand: arginine 13.2 mM) [nM] | apparent KD of K4 kissing-loop reporter (input ligand: none) [nM] | apparent KD of K4 kissing-loop reporter [1] [nM] | apparent KD of K4 kissing-loop reporter [2] [nM] |
| --- | --- | --- | --- | --- | --- |
| UUAGCAGUAUACUGCAAGACCUAUACUGAUACCAGAGUCAAUUGACUCCCUUGGCAGCGGAUCGAGUGAUGUUCGUAAGGUCAUU [AK4.2 SS Theophylline A] | 743 | 647 | 955 | 792 | 685 |
| UUAGGAGUGGAAGGAUAUCCUGGUGUGGGUGAUGUUAGUGAUGUUGAAGGUGCAGUGAUGUUGCGCGGAGAAGGUCCGGUGUUGA [BDazzled - #6 - Exc. FMN B] | 344 | 341 | 367 | 546 | 319 |
| UUAGGGAUCUCGGCCGCCACUCGUGGGAAAUGGGCCUCAGGGAUAUAGUGAUGUUAUGUAAAGAAGAGGACCGGGAGAAGGAAGG [ExTryptoB.Di] | 451 | 364 | 476 |  | 155 |
| UUAGUCUAGAGAAGGAGCGAGUGAUGUUCGCAUGAUCUCAUGAUAUCAUGAGAUCGAAAUCCUCAGGUAGGUCGCUCUAGACAUU [AK6 Exc Arginine B] | 493 | 372 | 534 | 424 | 545 |
| UUAGUCUAGAGAGGAUAUCAGUGAUGUUGAUAUCAAGAUCAUAGAUAGAAUUCUAUCUAUGAUCAAUGAGAAGGCUCUAGACAUU [AK1 Exc FMN B] | 746 | 141 | 161 | 155 | 163 |
| UUAUAUAAUUAGUCUUUUUUAACAUUAAGUCAGGAUAUCGUAUAUUCGAGAAGGGACACAUGCUAGUGAUGUUAGCUAUUUCUUU [JR_ExcFMNA_Sub017] | 32.4 | 54.7 | 30.7 | 50.1 | 31.5 |
| UUAUAUUUUAUAUUUAGUAGAGCUCUCACUCGAGGACCGGUACGGCCGCCACUCGAGUGAUGUUCGAGUGGGAGAGCUCUACAUU [AK3.2 EXC Tryptophan A] | 118 | 104 | 99.8 | 116 | 315 |
| UUAUCUAUAUUCGAUACCAGUACCCUUUGUGUUGAUCCUUUUAUCAGUGAUGUUGAUGUGUACCCUUGGCAGCGGGUAUGGGUUU [KL-XTheo-B16] | 384 | 370 | 425 | 556 | 279 |
| UUCAGGUGUUCGGCCGCCACUCCAGUGAUGUUGGAGUGGCUUCACAAGGACCAGGACAAUGUAAGGAGGACCGGGAAUAUCUCAG [Vequleat] | 130 | 105 | 136 | 128 | 118 |
| UUCAGGUGUUCGGCCGCCACUCCAGUGAUGUUGGAGUGGCUUCACAAGGGCCAGGACAAUGUAAGGAGGACCGGGAAUAUCUCAG [Onisle] | 97.9 | 96.1 | 132 | 77.3 | 111 |
| UUCCAGUGAUGUUGGUAUCUGAUAAGGGAAGGAGCGCGGAUUAACGCAGGUAGGUCGCCCAAGUAAUAAAUGUUUAUUAAUUGAU [Default title] | 183 | 193 | 201 | 161 | 188 |
| UUCUACGAGUGAUGUUCGUAGUGUAAUAGUUAGGAUAUCGUUUUUUCGAGAAGGAACUUCGAAGUGAUACGAAAGUAUCGCUUCG [FMN A 11] | 122 | 117 | 126 | 132 | 136 |
| UUGACCUACUCAGGAUAUCCGCAGUGAUGUUGCGGUUGGCCUGAGCGACAUGAAAAUCUUACUACAGGAGAAGGGAGAGGGUUAC [Anraerce] | 106 | 79.8 | 134 | 88.5 | 96.9 |
| UUGAGGGAGAAUUAUAGUGAUGUUAUAAAGAAGGAUAUCCAAAGAAGGAGAAGGUCUAAGAGGGAAGGGAGGGAGGGAGGGAGGG [ExFMNA.C] | 380 | 131 | 281 | 97.1 | 202 |
| UUGGAAAGACCAGAACAGGGCCUUAUCUGGGAGGAUAUGCUGGAGGGCAGAAGGCCCAGUGAUGUUGGGCCUUGUGCUCGUUCUA [Ainanti] | 165 | 125 | 139 | 137 | 145 |
| UUGGGCGAGGUAACGUGGAUAUCUCGUCGCAAGGAUAUCUGGAAACAGAGAAGGUGCUACAUUACCGGCAGUGAUGUUGCUGACC | 418 | 101 | 555 | 347 | 121 |
| UUGUUUGGUUGAGAGGUUGGGCGAGAUGAUACCAGUAGAGAAGAAUACCCUUGGCAGCAUAAGAAAGAUAUAGUGAUGUUGUAUA [SSTheophA.O] | 538 | 356 | 490 | 529 | 475 |
| UUGUUUGGUUGAGAGGUUGGGCGAGAUGAUACCAGUAUAGUAGAGUACCCUUGGCAGCAUAGGAGAGAUAUAGUGAUGUUGUAUG [SSTheophA.U] | 390 | 302 | 477 | 482 | 381 |
| UUGUUUGGUUGAGAGGUUGGGCGAGAUGAUACCAGUAUAGUAUUGUACCCUUGGCAGCAUAUGAGAGAUAUAGUGAUGUUGUAUG [SSTheophA.X] | 521 | 358 | 529 | 532 | 411 |
